Laboratory results reported in patent US9371393B2, “Class I anti-CEA antibodies and uses thereof” (Immunomedics, Inc., priority 2009, dated 2016).

Legend:
[1] = biological target: T1, CEA (Homo sapiens, UniProt P06731); test: Competitive CEA binding against HRP-labeled murine MN-15; details: competition with HRP-labeled murine MN-15
T1 sequence (P06731 35-676): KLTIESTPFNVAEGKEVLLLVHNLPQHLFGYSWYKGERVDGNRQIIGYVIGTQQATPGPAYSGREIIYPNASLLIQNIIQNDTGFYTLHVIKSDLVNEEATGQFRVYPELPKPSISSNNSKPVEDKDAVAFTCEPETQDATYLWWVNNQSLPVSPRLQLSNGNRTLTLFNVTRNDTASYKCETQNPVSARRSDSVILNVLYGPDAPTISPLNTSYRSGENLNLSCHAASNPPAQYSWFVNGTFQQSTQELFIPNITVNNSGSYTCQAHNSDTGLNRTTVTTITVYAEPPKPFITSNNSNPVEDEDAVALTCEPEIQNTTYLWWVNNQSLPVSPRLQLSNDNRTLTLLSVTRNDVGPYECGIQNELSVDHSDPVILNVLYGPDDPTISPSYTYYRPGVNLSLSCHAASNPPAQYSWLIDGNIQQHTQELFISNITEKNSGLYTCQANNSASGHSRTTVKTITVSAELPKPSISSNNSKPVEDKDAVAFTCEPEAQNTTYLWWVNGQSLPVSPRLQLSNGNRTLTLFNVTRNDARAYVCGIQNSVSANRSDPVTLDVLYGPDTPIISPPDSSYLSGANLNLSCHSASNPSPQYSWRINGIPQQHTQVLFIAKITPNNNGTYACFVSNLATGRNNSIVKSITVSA
Source text: To make a chimeric MN-15 antibody, the murine MN-15 variable region sequences were attached to human IgG1 constant region sequences, as described in Leung et al., Hybridoma 13:469 (1994). The sequences of the murine MN-15 VK (SEQ ID NO:9) and MN-15 VH (SEQ ID NO:10) used to construct the chimeric MN-15 (cMN-15) are shown in FIG. 2 and FIG. 3.

[2] = system: CaPAN-1 adhesion to fibronectin; test: Adhesion to extracellular matrix proteins assay, CaPAN-1; assay type: cell-based, human
Method: (§1) Adhesion to extracellular matrix proteins assay—The assay was done using the CYTOMATRIX™ screening kit from CHEMICON® (Kit #ECM205, Temecula, Calif.). The kit contains 96-well plates with strips coated with fibronectin, vitronectin, laminin, collagen-I, or collagen-IV. Subconfluent cell cultures were used for these studies. Cells (1×10^6 cells/mol) were seeded onto coated substrate and incubated at 37° C. for 1 hour in a CO2 incubator in PBS containing Ca^2+/Mg^2+ (200 μL per well). Adherent cells were fixed and stained. The plate was washed to remove unadhered cells and stained with 100 μL per well of MTS (Cell Titer Aq 96, PROMEGA®, Madison, Wis.) for 5 minutes at room temperature. Excess stain was removed with three PBS washes. Solubilization buffer [100 μL of a 50:50 mixture of 0.1 mol/L NaH2PO4 (pH 4.5) and 50% ethanol] was added to each well. Relative attachment was determined using absorbance readings (A540 nm-A570 nm).

[3] = system: MCF-7 cells adhesion to HUVEC; test: Endothelial cell adhesion assay, MCF-7; assay type: cell-based, human
Method: Endothelial cell adhesion assay—Human umbilical vein endothelial cells (HUVEC; Cambrex, San Diego, Calif.) were grown in collagen-coated dishes in EGM Media in a humidified atmosphere with 5% CO2 at 37° C. At passages 2 to 5, cells were plated at a density of 4×10^4 cells per well in 96-well plates 24 hours before the assay. Interleukin-1β (IL-1β, 1 ng/mol) was added 4 hours before the assay. At the start of the study, the medium with the IL-1β was removed and fresh DMEM with 1% bovine serum albumin (BSA) added and incubated for 30 minutes. Fresh medium without antibodies or with 10 μg/mol of MN-15 Fab′, MN-3 Fab′, or Ag8 Fab′ was added. Tumor cells (1×10^6 cells/mol) prelabeled overnight with ^3H-thymidine (100 μL per well using 1.0 μCi/mL) were added to HUVEC cultures and incubated for 30 minutes at 37° C. with rotation in medium with 20% FBS. Samples were washed thrice with PBS to remove unattached cells. Attached cells were solubilized with 0.1 N NaOH and radioactivity was measured in a β scintillation counter. The cpm attached/total cpm added (attaching potential) was determined.

[4] = system: tumor cell adhesion to ECM proteins (fibronectin, vitronectin, laminin, collagen-I, collagen-IV); test: Adhesion to extracellular matrix proteins assay, panel of six cell lines; assay type: cell-based, human
Method: as §1

[5] = system: CaPAN-1 cells; test: Collagen-based invasion assay, CaPAN-1; assay type: cell-based, human; details: 10% FBS chemoattractant, 72-hour incubation
Method: Collagen-based invasion assay—The assay was done using CHEMICON® Kit (#ECM551, MILLIPORE®, Billerica, Mass.). Tumor cells at 80% confluence and were serum-starved for 18 to 24 hours before the assay was used. Cells were harvested with 5 mol of 2 mmol/L EDTA/PBS per 100-mm dish and incubated at 37° C. for 5 to 15 minutes. Cells were collected into 10 to 20 mol of quenching medium (serum-free DMEM containing 5% BSA) to inactivate trypsin/EDTA from the harvesting buffer. Cells were pelleted, resuspended in quenching medium (1×10^6 cells/mol), and appropriate antibody Fabs were added to individual cell aliquots. Cell invasion potential was determined as follows. Baseline invasion and invasion in the presence of a chemoattractant (10% FBS) were measured after a 72-hour incubation period at 37° C. in a 5% CO2 incubator. The bottom side of the collagen-coated polycarbonate membrane insert of the invasion chamber was placed in 400 μL of cell stain for 20 minutes at room temperature and washed. The dye was extracted and transferred into a 96-well microtiter plate for colorimetric measurements (A560 nm).

B1: MN-15: murine Class I anti-CEA MAb, IgG1 kappa, binds A1B1 domain of CEACAM5 and CEACAM6 (antibody, V domains shown)
VL: DIQLTQSPAIMSASPGEKVTMTCSASSRVSYIHWYQQKSGTSPKRWIYGTSTLASGVPARFSGSGSGTSYSLTISSMEAEDAATYYCQQWSYNPPTFGAGTKLELKR
VH: EVRLVESGGGLVQGPGSLRLSCAASGFALTDYYMSWVRQSPGKTLEWLGFIANKANGHTTDYSPSVKGRFTISRDNSQTILYLQMNTLRTEDSATYYCARDMGIRWNFDVWGQGTTVTVSS
dissociation constant [1]: nanomolar range
decrease of adhesion to fibronectin [2]: 47%

B2: MN-15 Fab′: monovalent Fab′ fragment of murine MN-15 (antibody, V domains shown)
VL: B1 VL
VH: B1 VH
decrease in adhesion [3]: 41%
effect on adhesion to fibronectin [4]: induced a decrease in adhesion of three of six cell lines
reduction in cell invasion [5]: 73%
